Source: patent US20160097044A1, “Antimicrobial Enzyme Fusions Reduce Resistance and Kill Intracellular Staphylococcus aureus” (The United States of America, as Represented by the …, priority 2014, published 2016)

Columns and labels:
[1] = tested on: S. aureus ALR; test: Minimum Inhibitory Concentration (MIC) assay; type: cell-based; conditions: for Minimum Inhibitory Conc. (median μg/ml): S. aureus ALR
Method: (§1) The Minimum Inhibitory Concentrations (MIC) of each protein for multiple S. aureus strains was determined as previously described (Jones et al. 1985. In: Manual of Clinical Microbiology, Eds. Balows et al. American Society of Microbiology, Washington D.C., pp. 972-977) with the following modifications. Enzymes were serially diluted two fold across a 96 well plate, such that after dilution, 50 μl of the enzyme solution in 300 mM NaCl, 50 mM NaH2PO4, 30% glycerol pH 7.5, remained in each well. To each well was added 50 μl of TSB and 100 μl of S. aureus Newman in TSB (diluted to 5×10^6 cells/ml). The plates were incubated 20 h at 37° C. and read with a 96 well plate reader. MIC determination values were reported as the median of ≧4 replicates (Table 1).

[2] = tested on: S. aureus Newbould 305; test: Minimum Inhibitory Concentration (MIC) assay; type: cell-based; conditions: Mastitis isolate S. aureus Newbould 305
Method: as §1

[3] = tested on: S. aureus Newman; test: Minimum Inhibitory Concentration (MIC) assay; type: cell-based; conditions: for Minimum Inhibitory Conc. (median μg/ml): S. aureus Newman
Method: as §1

[4] = tested on: N315 (NRS 70); test: Minimum Inhibitory Concentration (MIC) assay; type: cell-based, S. aureus
Method: as §1

[5] = tested on: NRS 192; test: Minimum Inhibitory Concentration (MIC) assay; type: cell-based, S. aureus
Method: as §1

[6] = tested on: NRS 193; test: Minimum Inhibitory Concentration (MIC) assay; type: cell-based, S. aureus
Method: as §1

[7] = tested on: NRS 194; test: Minimum Inhibitory Concentration (MIC) assay; type: cell-based, S. aureus
Method: as §1

[8] = tested on: NRS 209; test: Minimum Inhibitory Concentration (MIC) assay; type: cell-based, S. aureus
Method: as §1

[9] = tested on: NRS 271; test: Minimum Inhibitory Concentration (MIC) assay; type: cell-based, S. aureus
Method: as §1

[10] = tested on: Sanger 252 (NRS 71); test: Minimum Inhibitory Concentration (MIC) assay; type: cell-based, S. aureus
Method: as §1

[11] = tested on: USA 100 (NRS 382); test: Minimum Inhibitory Concentration (MIC) assay; type: cell-based, S. aureus
Method: as §1

[12] = tested on: USA 200 (NRS 383); test: Minimum Inhibitory Concentration (MIC) assay; type: cell-based, S. aureus
Method: as §1

[13] = tested on: USA 300 (NRS 384); test: Minimum Inhibitory Concentration (MIC) assay; type: cell-based, S. aureus
Method: as §1

[14] = tested on: USA 400 (NRS 123); test: Minimum Inhibitory Concentration (MIC) assay; type: cell-based, S. aureus
Method: as §1

[15] = tested on: USA 500 (NRS 385); test: Minimum Inhibitory Concentration (MIC) assay; type: cell-based, S. aureus
Method: as §1

[16] = tested on: USA 600 (NRS 22); test: Minimum Inhibitory Concentration (MIC) assay; type: cell-based, S. aureus
Method: as §1

[17] = tested on: S. chromogenes MP02; test: Minimum Inhibitory Concentration (MIC) assay; type: cell-based, Staphylococcus chromogenes; conditions: Mastitis isolate S. chromogenes MP02
[18] = tested on: S. epidermidis MP04; test: Minimum Inhibitory Concentration (MIC) assay; type: cell-based, Staphylococcus epidermidis; conditions: Mastitis isolate S. epidermidis MP04
[19] = tested on: S. simulans MP03; test: Minimum Inhibitory Concentration (MIC) assay; type: cell-based, Staphylococcus simulans; conditions: Mastitis isolate S. simulans MP03
[20] = tested on: S. warneri MP06; test: Minimum Inhibitory Concentration (MIC) assay; type: cell-based, Staphylococcus warneri; conditions: Mastitis isolate S. warneri MP06
[21] = tested on: S. xylosus MP05; test: Minimum Inhibitory Concentration (MIC) assay; type: cell-based, Staphylococcus xylosus; conditions: Mastitis isolate S. xylosus MP05
[22] = tested on: S. aureus strain Newman; type: cell-based; conditions: tenth round compared to first exposure
Method: For the MIC repeated exposure method, MIC determinations were performed with S. aureus strain Newman. 100 μl of S. aureus strain Newman culture that survived at ½ the MIC (the first well with visible growth) for each round was inoculated into 5 ml TSB and cultivated to mid-log phase growth. This culture was used as the inoculum for the next round of MIC exposure (overnight growth), and the cycle was repeated for 10 rounds.
Development of resistance to the triple-acting fusion enzymes was tested on S. aureus strain Newman and compared to both parental enzymes applied individually or simultaneously. […] Survivors of the ten round exposure to peptidoglycan hydrolase were passaged five times in medium with no peptidoglycan hydrolase added. […] We compared our triple-acting fusions to small molecule antibiotics in similar assays.

[23] = first exposure of the resistance development experiment, FIG. 1b
[24] = first exposure, molar concentration in brackets

Molecule	Minimum Inhibitory Conc. (median μg/ml) [1]	Minimum Inhibitory Conc. (median μg/ml) [2]	Minimum Inhibitory Conc. (median μg/ml) [3]	First exposure MIC [3, 23]	First exposure MIC [3, 24]	Minimum Inhibitory Conc. (median μg/ml) [4]	Minimum Inhibitory Conc. (median μg/ml) [5]	Minimum Inhibitory Conc. (median μg/ml) [6]	Minimum Inhibitory Conc. (median μg/ml) [7]	Minimum Inhibitory Conc. (median μg/ml) [8]	Minimum Inhibitory Conc. (median μg/ml) [9]	Minimum Inhibitory Conc. (median μg/ml) [10]	Minimum Inhibitory Conc. (median μg/ml) [11]	Minimum Inhibitory Conc. (median μg/ml) [12]	Minimum Inhibitory Conc. (median μg/ml) [13]	Minimum Inhibitory Conc. (median μg/ml) [14]	Minimum Inhibitory Conc. (median μg/ml) [15]	Minimum Inhibitory Conc. (median μg/ml) [16]	Minimum Inhibitory Conc. (median μg/ml) [17]	Minimum Inhibitory Conc. (median μg/ml) [18]	also measured
K-L: both LysK lytic domains fused to the N-terminus of lysostaphin; SEQ ID NO:5, protein SEQ ID NO:6	7.0 µg/mL	11 µg/mL	7.0 µg/mL	7 mg/L	0.097 µM	7.0 µg/mL	11 µg/mL	7.0 µg/mL	14 µg/mL	7.0 µg/mL	7.0 µg/mL	5.5 µg/mL	14 µg/mL	5.5 µg/mL	11 µg/mL	7.0 µg/mL	7.0 µg/mL	7.0 µg/mL	3.5 µg/mL	3.5 µg/mL	Minimum Inhibitory Conc. (median μg/ml) [19]: 3.5 µg/mL; Minimum Inhibitory Conc. (median μg/ml) [20]: 5.3 µg/mL; Minimum Inhibitory Conc. (median μg/ml) [21]: 3.5 µg/mL; increase in MIC after 10 rounds of sub-lethal exposure [22]: 8 fold
L: 247 amino acid mature (secreted) lysostaphin, staphylolytic bacteriocin, C-terminal His6 tag; SEQ ID NO:1 [reference compound]	0.77 µg/mL	12 µg/mL	0.77 µg/mL	0.77 mg/L	0.027 µM	0.68 µg/mL	1.2 µg/mL	1.2 µg/mL	1.2 µg/mL	0.97 µg/mL	0.58 µg/mL	0.58 µg/mL	1.2 µg/mL	1.2 µg/mL	1.2 µg/mL	1.2 µg/mL	1.2 µg/mL	1.2 µg/mL	0.58 µg/mL	6.2 µg/mL	Minimum Inhibitory Conc. (median μg/ml) [19]: 1.5 µg/mL; Minimum Inhibitory Conc. (median μg/ml) [20]: 1.5 µg/mL; Minimum Inhibitory Conc. (median μg/ml) [21]: 0.39 µg/mL; increase in MIC after 10 rounds of sub-lethal exposure [22]: 585 fold
L-K: LysK lytic domains inserted between lysostaphin's M23 endopeptidase domain and SH3b cell wall binding domain; SEQ ID NO:7, protein SEQ ID NO:8 (protein, Staphylococcus simulans & Phage K) MAATHEHSAQWLNNYKKGYGYGPYPLGINGGMHYGVDFFMNIGTPVKAISSGKIVEAGWSNYGGGNQIGLIENDGVHRQWYMHLSKYNVKVGDYVKAGQIIGWSGSTGYSTAPHLHFQRMVNSFSNSTAQDPMPFLKSAGYGKAGGTVTPTPNTGLDAKTQAEINKRLDAYAKGTVDSPYRVKKATSYDPSFGVMEAGAIDADGYYHAQCQDLITDYVLWLTDNKVRTWGNAKDQIKQSYGTGFKIHENKPSTVPKKGWIAVFTSGSYEQWGHIGIVYDGGNTSTFTILEQNWNGYANKKPTKRVDNYYGLTHFIEIPVKAGTTVKKETAKKSASKTPAPKKKATLKVSKNHINYTMDKRGKKPEGMVIHNDAGRSSGQQYENSLANAGYARYANGIAHYYGSEGYVWEAIDAKNQIAWHTGDGTGANSGNFRFAGIEVCQSMSASDAQFLKNEQAVFQFTAEKFKEWGLTPNRKTVRLHMEFVPTACPHRSMVLHTGFNPVTQGRPSQAIMNKLKDYFIKQIKNYMDKGTSSSTVVKDGKTSSASLDTVTPTPNTGWKTNKYGTLYKSESASFTPNTDIITRTTGPFRSMPQSGVLKAGQTIHYDEVMKQDGHVWVGYTGNSGQRIYLPVRTWNKSTNTLGVLWGTIKLEHHHHHH	4.4 µg/mL	12 µg/mL	7.8 µg/mL	7.8 mg/L	0.107 µM	16 µg/mL	16 µg/mL	12 µg/mL	12 µg/mL	12 µg/mL	9.8 µg/mL	6.8 µg/mL	20 µg/mL	5.9 µg/mL	20 µg/mL	16 µg/mL	12 µg/mL	6.8 µg/mL	0.37 µg/mL	4.2 µg/mL	MIC for S. aureus ALR (comparison for post-treatment isolates) ([1]; N=8, value ± spread): 9.4 ± 6.1 mg/L; Minimum Inhibitory Conc. (median μg/ml) [19]: 5.9 µg/mL; Minimum Inhibitory Conc. (median μg/ml) [20]: 1.5 µg/mL; Minimum Inhibitory Conc. (median μg/ml) [21]: 4.0 µg/mL; increase in MIC after 10 rounds of sub-lethal exposure [22]: 2 fold
K: 495 amino-acid staphylococcal phage K endolysin LysK, C-terminal His6 tag; SEQ ID NO:3 (protein, C-terminal His6 tag; Phage K) MAKTQAEINKRLDAYAKGTVDSPYRVKKATSYDPSFGVMEAGAIDADGYYHAQCQDLITDYVLWLTDNKVRTWGNAKDQIKQSYGTGFKIHENKPSTVPKKGWIAVFTSGSYEQWGHIGIVYDGGNTSTFTILEQNWNGYANKKPTKRVDNYYGLTHFIEIPVKAGTTVKKETAKKSASKTPAPKKKATLKVSKNHINYTMDKRGKKPEGMVIHNDAGRSSGQQYENSLANAGYARYANGIAHYYGSEGYVWEAIDAKNQIAWHTGDGTGANSGNFRFAGIEVCQSMSASDAQFLKNEQAVFQFTAEKFKEWGLTPNRKTVRLHMEFVPTACPHRSMVLHTGFNPVTQGRPSQAIMNKLKDYFIKQIKNYMDKGTSSSTVVKDGKTSSASTPATRPVTGSWKKNQYGTWYKPENATFVNGNQPIVTRIGSPFLNAPVGGNLPAGATIVYDEVCIQAGHIWIGYNAYNGNRVYCPVRTCQGVPPNQIPGVAWGVFKLEHHHHHH	34 µg/mL	34 µg/mL	47 µg/mL	47 mg/L	0.84 µM	37 µg/mL	80 µg/mL	37 µg/mL	69 µg/mL	40 µg/mL	44 µg/mL	29 µg/mL	96 µg/mL	34 µg/mL	75 µg/mL	75 µg/mL	67 µg/mL	75 µg/mL	16 µg/mL	8.4 µg/mL	Minimum Inhibitory Conc. (median μg/ml) [19]: 20 µg/mL; Minimum Inhibitory Conc. (median μg/ml) [20]: 28 µg/mL; Minimum Inhibitory Conc. (median μg/ml) [21]: 8.4 µg/mL; increase in MIC after 10 rounds of sub-lethal exposure [22]: 42 fold
